In data set [1] the target is T1, human WT ADA2, myc-FLAG-tagged (pCMV6) (human, UniProt Q9NZK5-1 30-511).
T1 sequence (looked up): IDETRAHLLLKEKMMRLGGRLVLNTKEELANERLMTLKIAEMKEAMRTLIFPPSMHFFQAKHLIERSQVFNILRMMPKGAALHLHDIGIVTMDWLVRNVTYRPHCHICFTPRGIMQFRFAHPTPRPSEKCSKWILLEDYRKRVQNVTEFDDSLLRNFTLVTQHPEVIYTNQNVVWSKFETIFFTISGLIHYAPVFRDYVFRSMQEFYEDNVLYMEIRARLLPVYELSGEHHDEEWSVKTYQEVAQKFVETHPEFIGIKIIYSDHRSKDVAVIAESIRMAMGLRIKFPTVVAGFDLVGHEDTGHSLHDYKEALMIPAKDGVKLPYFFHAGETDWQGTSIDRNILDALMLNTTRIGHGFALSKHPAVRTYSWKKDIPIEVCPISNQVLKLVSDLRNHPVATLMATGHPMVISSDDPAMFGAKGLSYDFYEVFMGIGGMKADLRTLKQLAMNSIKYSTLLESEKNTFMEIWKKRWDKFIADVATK
As to the kind of experiment: cell-based or functional assay.

Data set [2] deals with the molecule itself. Nature of the data set: native gel or EMSA; supernatant of HEK293T transfected with one ADA2 construct (homozygous condition), collected after 48 h; NativePAGE 4-16% Bis-Tris, western blot with anti-ADA2; dimer band quantified relative to WT100%.

B1: ADA2 variant G47A, myc-FLAG-tagged (pCMV6) (enzyme, human, UniProt Q9NZK5-1 30-511, looked up)
chain: IDETRAHLLLKEKMMRLAGRLVLNTKEELANERLMTLKIAEMKEAMRTLIFPPSMHFFQAKHLIERSQVFNILRMMPKGAALHLHDIGIVTMDWLVRNVTYRPHCHICFTPRGIMQFRFAHPTPRPSEKCSKWILLEDYRKRVQNVTEFDDSLLRNFTLVTQHPEVIYTNQNVVWSKFETIFFTISGLIHYAPVFRDYVFRSMQEFYEDNVLYMEIRARLLPVYELSGEHHDEEWSVKTYQEVAQKFVETHPEFIGIKIIYSDHRSKDVAVIAESIRMAMGLRIKFPTVVAGFDLVGHEDTGHSLHDYKEALMIPAKDGVKLPYFFHAGETDWQGTSIDRNILDALMLNTTRIGHGFALSKHPAVRTYSWKKDIPIEVCPISNQVLKLVSDLRNHPVATLMATGHPMVISSDDPAMFGAKGLSYDFYEVFMGIGGMKADLRTLKQLAMNSIKYSTLLESEKNTFMEIWKKRWDKFIADVATK
notes: adenosine deaminase 2 (ADA2), human; site-directed mutant of the WT clone of transcript 3, NM_001282225 (OriGene RC238645); Pathogenic variant that occurs in patients; also called p.G47A; source: HEK293T, transfected; in supernatant and whole-cell lysate
For the molecule B1, the “adenosine deaminase activity of whole-cell lysate and supernatant of HEK293T cotransfected with WT and variant ADA2 (heterozygous), relative to WT50%” value in data set [1] is < 75 % of WT50%. The “residual dimer in the supernatant (% of WT100%)” value (from here on “residual dimer … (% of WT100%)”) in data set [2] was ~48 % of WT100%.

B2: ADA2 variant Y453C, myc-FLAG-tagged (pCMV6) (enzyme, human, UniProt Q9NZK5-1 30-511, looked up)
chain: IDETRAHLLLKEKMMRLGGRLVLNTKEELANERLMTLKIAEMKEAMRTLIFPPSMHFFQAKHLIERSQVFNILRMMPKGAALHLHDIGIVTMDWLVRNVTYRPHCHICFTPRGIMQFRFAHPTPRPSEKCSKWILLEDYRKRVQNVTEFDDSLLRNFTLVTQHPEVIYTNQNVVWSKFETIFFTISGLIHYAPVFRDYVFRSMQEFYEDNVLYMEIRARLLPVYELSGEHHDEEWSVKTYQEVAQKFVETHPEFIGIKIIYSDHRSKDVAVIAESIRMAMGLRIKFPTVVAGFDLVGHEDTGHSLHDYKEALMIPAKDGVKLPYFFHAGETDWQGTSIDRNILDALMLNTTRIGHGFALSKHPAVRTYSWKKDIPIEVCPISNQVLKLVSDLRNHPVATLMATGHPMVISSDDPAMFGAKGLSCDFYEVFMGIGGMKADLRTLKQLAMNSIKYSTLLESEKNTFMEIWKKRWDKFIADVATK
On to B2, for which, in data set [1], the “adenosine deaminase activity of whole-cell lysate and supernatant of HEK293T cotransfected with WT and variant ADA2 (heterozygous), relative to WT50%” value was 41 % of WT50%.

B3: ADA2 variant G47V, myc-FLAG-tagged (pCMV6) (enzyme, human, UniProt Q9NZK5-1 30-511, looked up)
chain: IDETRAHLLLKEKMMRLVGRLVLNTKEELANERLMTLKIAEMKEAMRTLIFPPSMHFFQAKHLIERSQVFNILRMMPKGAALHLHDIGIVTMDWLVRNVTYRPHCHICFTPRGIMQFRFAHPTPRPSEKCSKWILLEDYRKRVQNVTEFDDSLLRNFTLVTQHPEVIYTNQNVVWSKFETIFFTISGLIHYAPVFRDYVFRSMQEFYEDNVLYMEIRARLLPVYELSGEHHDEEWSVKTYQEVAQKFVETHPEFIGIKIIYSDHRSKDVAVIAESIRMAMGLRIKFPTVVAGFDLVGHEDTGHSLHDYKEALMIPAKDGVKLPYFFHAGETDWQGTSIDRNILDALMLNTTRIGHGFALSKHPAVRTYSWKKDIPIEVCPISNQVLKLVSDLRNHPVATLMATGHPMVISSDDPAMFGAKGLSYDFYEVFMGIGGMKADLRTLKQLAMNSIKYSTLLESEKNTFMEIWKKRWDKFIADVATK
B3: the “adenosine deaminase activity of the supernatant of HEK293T cotransfected with WT and variant ADA2 (heterozygous), relative to WT50%” value in data set [1] was 58 % of WT50%.

B4: ADA2 variant R169Q, myc-FLAG-tagged (pCMV6) (enzyme, human, UniProt Q9NZK5-1 30-511, looked up)
chain: IDETRAHLLLKEKMMRLGGRLVLNTKEELANERLMTLKIAEMKEAMRTLIFPPSMHFFQAKHLIERSQVFNILRMMPKGAALHLHDIGIVTMDWLVRNVTYRPHCHICFTPRGIMQFRFAHPTPRPSEKCSKWILLEDYQKRVQNVTEFDDSLLRNFTLVTQHPEVIYTNQNVVWSKFETIFFTISGLIHYAPVFRDYVFRSMQEFYEDNVLYMEIRARLLPVYELSGEHHDEEWSVKTYQEVAQKFVETHPEFIGIKIIYSDHRSKDVAVIAESIRMAMGLRIKFPTVVAGFDLVGHEDTGHSLHDYKEALMIPAKDGVKLPYFFHAGETDWQGTSIDRNILDALMLNTTRIGHGFALSKHPAVRTYSWKKDIPIEVCPISNQVLKLVSDLRNHPVATLMATGHPMVISSDDPAMFGAKGLSYDFYEVFMGIGGMKADLRTLKQLAMNSIKYSTLLESEKNTFMEIWKKRWDKFIADVATK
On to B4, for which the “adenosine deaminase activity of the supernatant of HEK293T cotransfected with WT and variant ADA2 (heterozygous), relative to WT50%” value in data set [1] is 23 % of WT50%.

B5: ADA2 variant G47R, myc-FLAG-tagged (pCMV6) (enzyme, human, UniProt Q9NZK5-1 30-511, looked up)
chain: IDETRAHLLLKEKMMRLRGRLVLNTKEELANERLMTLKIAEMKEAMRTLIFPPSMHFFQAKHLIERSQVFNILRMMPKGAALHLHDIGIVTMDWLVRNVTYRPHCHICFTPRGIMQFRFAHPTPRPSEKCSKWILLEDYRKRVQNVTEFDDSLLRNFTLVTQHPEVIYTNQNVVWSKFETIFFTISGLIHYAPVFRDYVFRSMQEFYEDNVLYMEIRARLLPVYELSGEHHDEEWSVKTYQEVAQKFVETHPEFIGIKIIYSDHRSKDVAVIAESIRMAMGLRIKFPTVVAGFDLVGHEDTGHSLHDYKEALMIPAKDGVKLPYFFHAGETDWQGTSIDRNILDALMLNTTRIGHGFALSKHPAVRTYSWKKDIPIEVCPISNQVLKLVSDLRNHPVATLMATGHPMVISSDDPAMFGAKGLSYDFYEVFMGIGGMKADLRTLKQLAMNSIKYSTLLESEKNTFMEIWKKRWDKFIADVATK
notes: adenosine deaminase 2 (ADA2), human; site-directed mutant of the WT clone of transcript 3, NM_001282225 (OriGene RC238645); Patient variant; also called p.G47R; source: HEK293T, transfected; in supernatant and whole-cell lysate
For B5, in data set [1], the “adenosine deaminase activity of whole-cell lysate and supernatant of HEK293T cotransfected with WT and variant ADA2 (heterozygous), relative to WT50%” value is < 75 % of WT50%. For the same molecule, in data set [2], the “residual dimer … (% of WT100%)” value is ~53 % of WT100%.

B6: ADA2 variant E328K, myc-FLAG-tagged (pCMV6) (enzyme, human, UniProt Q9NZK5-1 30-511, looked up)
chain: IDETRAHLLLKEKMMRLGGRLVLNTKEELANERLMTLKIAEMKEAMRTLIFPPSMHFFQAKHLIERSQVFNILRMMPKGAALHLHDIGIVTMDWLVRNVTYRPHCHICFTPRGIMQFRFAHPTPRPSEKCSKWILLEDYRKRVQNVTEFDDSLLRNFTLVTQHPEVIYTNQNVVWSKFETIFFTISGLIHYAPVFRDYVFRSMQEFYEDNVLYMEIRARLLPVYELSGEHHDEEWSVKTYQEVAQKFVETHPEFIGIKIIYSDHRSKDVAVIAESIRMAMGLRIKFPTVVAGFDLVGHKDTGHSLHDYKEALMIPAKDGVKLPYFFHAGETDWQGTSIDRNILDALMLNTTRIGHGFALSKHPAVRTYSWKKDIPIEVCPISNQVLKLVSDLRNHPVATLMATGHPMVISSDDPAMFGAKGLSYDFYEVFMGIGGMKADLRTLKQLAMNSIKYSTLLESEKNTFMEIWKKRWDKFIADVATK
In the case of B6, in data set [1], the “adenosine deaminase activity of whole-cell lysate and supernatant of HEK293T cotransfected with WT and variant ADA2 (heterozygous), relative to WT50%” value was < 75 % of WT50%.

B7: ADA2 variant G47W, myc-FLAG-tagged (pCMV6) (enzyme, human, UniProt Q9NZK5-1 30-511, looked up)
chain: IDETRAHLLLKEKMMRLWGRLVLNTKEELANERLMTLKIAEMKEAMRTLIFPPSMHFFQAKHLIERSQVFNILRMMPKGAALHLHDIGIVTMDWLVRNVTYRPHCHICFTPRGIMQFRFAHPTPRPSEKCSKWILLEDYRKRVQNVTEFDDSLLRNFTLVTQHPEVIYTNQNVVWSKFETIFFTISGLIHYAPVFRDYVFRSMQEFYEDNVLYMEIRARLLPVYELSGEHHDEEWSVKTYQEVAQKFVETHPEFIGIKIIYSDHRSKDVAVIAESIRMAMGLRIKFPTVVAGFDLVGHEDTGHSLHDYKEALMIPAKDGVKLPYFFHAGETDWQGTSIDRNILDALMLNTTRIGHGFALSKHPAVRTYSWKKDIPIEVCPISNQVLKLVSDLRNHPVATLMATGHPMVISSDDPAMFGAKGLSYDFYEVFMGIGGMKADLRTLKQLAMNSIKYSTLLESEKNTFMEIWKKRWDKFIADVATK
notes: adenosine deaminase 2 (ADA2), human; site-directed mutant of the WT clone of transcript 3, NM_001282225 (OriGene RC238645); Pathogenic variant that occurs in patients; source: HEK293T, transfected, in supernatant
On to B7, for which, in data set [2], the “residual dimer … (% of WT100%)” value was ~9 % of WT100%.

(Values after PMC12382605, “Dominant negative ADA2 mutations cause ADA2 deficiency in heterozygous carriers” (The Journal of Experimental Medicine, 2025).)
